# Measured values taken from publication PMC6491619, “Development and application of a high-content virion display human GPCR array” (Nature Communications, 2019).
# No end group written: not given here.
# T1: VirD-GABBR2 (human, UniProt O75899 42-941)
# T1 construct: source: recombinant HSV-1 (UL27 locus); virions from infected cells (in most cases Vero), purified by sucrose cushion; also on infected Vero cells; not shown: V5, C-terminal, kept
# T1 sequence: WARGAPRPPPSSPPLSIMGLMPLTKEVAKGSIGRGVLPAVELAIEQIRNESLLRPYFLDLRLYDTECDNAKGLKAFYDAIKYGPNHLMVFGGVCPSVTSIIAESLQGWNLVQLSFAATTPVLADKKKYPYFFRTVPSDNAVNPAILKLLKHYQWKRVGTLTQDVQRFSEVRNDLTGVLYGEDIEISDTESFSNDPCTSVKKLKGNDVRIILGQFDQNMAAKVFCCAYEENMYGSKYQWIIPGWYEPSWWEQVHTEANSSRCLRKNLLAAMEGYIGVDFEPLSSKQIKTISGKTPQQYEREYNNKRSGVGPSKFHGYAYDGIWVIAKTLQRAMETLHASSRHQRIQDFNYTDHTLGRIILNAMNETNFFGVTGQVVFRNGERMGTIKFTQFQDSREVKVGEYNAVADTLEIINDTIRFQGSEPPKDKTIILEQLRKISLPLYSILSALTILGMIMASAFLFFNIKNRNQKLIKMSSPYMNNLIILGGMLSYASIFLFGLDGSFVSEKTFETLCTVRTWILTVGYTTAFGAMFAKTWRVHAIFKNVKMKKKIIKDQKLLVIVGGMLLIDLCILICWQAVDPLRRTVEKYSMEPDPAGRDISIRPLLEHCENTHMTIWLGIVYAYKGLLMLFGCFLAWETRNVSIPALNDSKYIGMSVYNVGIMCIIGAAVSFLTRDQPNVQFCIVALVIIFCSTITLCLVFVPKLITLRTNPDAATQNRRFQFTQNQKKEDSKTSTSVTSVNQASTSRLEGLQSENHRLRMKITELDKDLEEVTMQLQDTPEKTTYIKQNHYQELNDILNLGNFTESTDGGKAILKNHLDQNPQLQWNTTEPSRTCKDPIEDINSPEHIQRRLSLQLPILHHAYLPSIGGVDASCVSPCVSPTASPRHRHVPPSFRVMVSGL
# Key:
# Assay in all cases: virion-oscillator (plasmonic imaging, SPR read-out); VirD-GPCR virions tethered to a gold chip by a PEG linker and driven by a sinusoidal potential (5 Hz); label-free SRIF-14 perfused at several doses; first-order kinetics model
# Conditions in all cases: one partner purified
# [1] = biological target: T1, VirD-GABBR2
# [2] = biological target: T2, VirD-NTSR1 (human, UniProt P30989 1-418)
# T2 construct: source: recombinant HSV-1 (UL27 locus); virions from infected cells (in most cases Vero), purified by sucrose cushion; also on infected Vero cells; not shown: V5, C-terminal, kept
# T2 sequence (P30989 whole entry): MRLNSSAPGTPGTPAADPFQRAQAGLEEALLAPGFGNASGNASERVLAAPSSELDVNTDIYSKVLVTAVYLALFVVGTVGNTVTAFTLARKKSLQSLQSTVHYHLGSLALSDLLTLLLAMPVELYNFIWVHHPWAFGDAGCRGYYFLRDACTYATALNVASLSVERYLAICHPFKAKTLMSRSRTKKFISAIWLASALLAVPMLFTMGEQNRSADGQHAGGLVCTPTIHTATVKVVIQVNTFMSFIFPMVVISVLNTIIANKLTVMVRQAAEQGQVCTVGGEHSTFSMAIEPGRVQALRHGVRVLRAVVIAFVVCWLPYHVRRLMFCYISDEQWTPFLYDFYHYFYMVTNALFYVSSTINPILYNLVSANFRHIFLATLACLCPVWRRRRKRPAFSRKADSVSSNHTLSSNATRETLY
# [3] = biological target: T3, VirD-KISS1R (human, UniProt Q969F8 1-398)
# T3 construct: source: recombinant HSV-1 (UL27 locus); virions from infected cells (in most cases Vero), purified by sucrose cushion; also on infected Vero cells; not shown: V5, C-terminal, kept
# T3 sequence (Q969F8 whole entry): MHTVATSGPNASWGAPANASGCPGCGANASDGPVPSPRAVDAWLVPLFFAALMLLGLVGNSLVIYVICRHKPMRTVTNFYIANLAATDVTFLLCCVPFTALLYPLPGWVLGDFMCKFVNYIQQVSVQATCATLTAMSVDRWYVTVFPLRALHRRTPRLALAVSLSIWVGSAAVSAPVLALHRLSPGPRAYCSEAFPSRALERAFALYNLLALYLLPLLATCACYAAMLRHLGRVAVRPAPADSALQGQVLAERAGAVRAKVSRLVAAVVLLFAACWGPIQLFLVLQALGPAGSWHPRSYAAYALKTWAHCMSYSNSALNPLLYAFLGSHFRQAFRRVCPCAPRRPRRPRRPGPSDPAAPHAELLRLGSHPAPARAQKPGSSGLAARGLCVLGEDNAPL
binder,measurement,setting,value
"AGCKNFFWKTFTSC (not fully specified (bridges); ends and bridges not checked, somatostatin-14 (SRIF-14), cut product of the somatostatin precursor; also called cold SRIF-14; SIRF-14; source: bought: AnaSpec (peptide)) [somatostatin-14 (SRIF-14), unlabeled]",Kd,[1],0.4 µM
same,Kd,[2],2.6 µM
same,Kd,[3],25 µM
